Data: paper PMC7966800, “Adiponectin-expressing Treg facilitate T lymphocyte development in thymic nurse cell complexes” (Communications Biology, 2021)
Several values for one entry are separate records, joined by “and”; a condition that tells them apart may be missing. Equal values may be shown once.

Target: the molecule itself
Assay: non-reducing SDS-PAGE with Western blotting; thymus lysate of WT mice; non-reducing SDS-PAGE, polyclonal antibody to murine adiponectin

B1: Adiponectin (natural protein, mouse (endogenous in thymus), UniProt Q60994 18-247, looked up)
chain: EDDVTTTEELAPALVPPPKGTCAGWMAGIPGHPGHNGTPGRDGRDGTPGEKGEKGDAGLLGPKGETGDVGMTGAEGPRGFPGTPGRKGEPGEAAYVYRSAFSVGLETRVTVPNVPIRFTKIFYNQQNHYDGSTGKFYCNIPGLYYFSYHITVYMKDVKVSLFKKDKAVLFTYDQYQEKNVDQASGSVLLHLEVGDQVWLQVYGDGDHNGLYADNVNDSTFTGFLLYHDTN
notes: adiponectin, mouse, endogenous protein of thymus and thymic nurse cell (TNC) complexes; found as trimer, hexamer and HMW oligomers; Endogenous secreted glycoprotein; detected with a polyclonal antibody against murine adiponectin; also called Adn; ADIPOQ; source: endogenous, thymus tissue and TNC complexes of wild-type mice, in lysate
stoichiometry N: 3 and 6
